Assay results published in patent US20150355199A1 (ROCHE DIAGNOSTICS OPERATIONS, published 2015).

T1: recombinant CFHR1-1-5 (tag-less, full-length mature human complement factor H-related protein 1) (human, UniProt Q03591 19-330)
T1 construct: also called recCFHR1
T1 sequence: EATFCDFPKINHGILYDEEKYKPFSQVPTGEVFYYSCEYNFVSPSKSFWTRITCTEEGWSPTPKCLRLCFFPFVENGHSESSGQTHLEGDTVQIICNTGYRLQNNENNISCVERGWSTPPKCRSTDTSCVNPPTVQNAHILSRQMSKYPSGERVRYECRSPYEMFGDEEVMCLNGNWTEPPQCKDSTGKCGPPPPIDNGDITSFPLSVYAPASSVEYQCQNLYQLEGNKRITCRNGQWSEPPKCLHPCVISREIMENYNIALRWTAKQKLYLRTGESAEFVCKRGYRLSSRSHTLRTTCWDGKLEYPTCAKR

T2: CFHR2-GS-Avi-GS-His8 (human)
T2 construct: Tagged recombinant protein from HEK293 cells; also called recombinant CFHR2
T2 chain: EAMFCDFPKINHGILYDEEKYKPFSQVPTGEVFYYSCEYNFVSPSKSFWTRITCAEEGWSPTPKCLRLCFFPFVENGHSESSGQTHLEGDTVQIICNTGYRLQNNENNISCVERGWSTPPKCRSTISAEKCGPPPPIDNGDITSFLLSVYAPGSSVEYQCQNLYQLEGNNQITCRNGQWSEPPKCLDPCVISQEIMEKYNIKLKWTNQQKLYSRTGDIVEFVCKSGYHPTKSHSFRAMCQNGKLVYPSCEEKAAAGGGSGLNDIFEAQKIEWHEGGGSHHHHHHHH

T3: CFHR3-GS-Avi-GS-His8 (human, UniProt Q02985 19-330)
T3 construct: Tagged recombinant protein from HEK293 cells; also called recombinant CFHR3
T3 sequence: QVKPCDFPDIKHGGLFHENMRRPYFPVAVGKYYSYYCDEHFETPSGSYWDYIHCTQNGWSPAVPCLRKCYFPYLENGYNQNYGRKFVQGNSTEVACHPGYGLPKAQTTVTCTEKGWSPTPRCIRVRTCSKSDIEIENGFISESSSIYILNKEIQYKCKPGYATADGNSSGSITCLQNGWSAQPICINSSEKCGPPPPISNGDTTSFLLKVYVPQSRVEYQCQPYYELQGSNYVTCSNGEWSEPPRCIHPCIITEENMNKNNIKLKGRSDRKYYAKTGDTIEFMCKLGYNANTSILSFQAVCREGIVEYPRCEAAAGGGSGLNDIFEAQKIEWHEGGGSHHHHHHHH

T4: CFHR4-GS-Avi-GS-His8 (CFHR4 Variant B) (human)
T4 construct: Tagged recombinant protein from HEK293 cells; also called CFHR4B; recombinant CFHR4B
T4 chain: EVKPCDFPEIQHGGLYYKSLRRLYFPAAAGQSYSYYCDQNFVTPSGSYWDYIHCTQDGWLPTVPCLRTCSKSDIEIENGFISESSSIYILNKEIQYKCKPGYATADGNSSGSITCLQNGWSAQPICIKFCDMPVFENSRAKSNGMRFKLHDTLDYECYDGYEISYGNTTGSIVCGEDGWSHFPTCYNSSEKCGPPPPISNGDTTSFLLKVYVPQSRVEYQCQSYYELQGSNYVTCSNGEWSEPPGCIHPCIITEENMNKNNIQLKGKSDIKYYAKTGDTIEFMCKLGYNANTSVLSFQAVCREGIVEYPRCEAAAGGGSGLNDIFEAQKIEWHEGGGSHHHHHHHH

T5: CFHR5-GS-Avi-GS-His8 (human, UniProt Q9BXR6 19-569)
T5 construct: Tagged recombinant protein from HEK293 cells; also called recombinant CFHR5
T5 sequence: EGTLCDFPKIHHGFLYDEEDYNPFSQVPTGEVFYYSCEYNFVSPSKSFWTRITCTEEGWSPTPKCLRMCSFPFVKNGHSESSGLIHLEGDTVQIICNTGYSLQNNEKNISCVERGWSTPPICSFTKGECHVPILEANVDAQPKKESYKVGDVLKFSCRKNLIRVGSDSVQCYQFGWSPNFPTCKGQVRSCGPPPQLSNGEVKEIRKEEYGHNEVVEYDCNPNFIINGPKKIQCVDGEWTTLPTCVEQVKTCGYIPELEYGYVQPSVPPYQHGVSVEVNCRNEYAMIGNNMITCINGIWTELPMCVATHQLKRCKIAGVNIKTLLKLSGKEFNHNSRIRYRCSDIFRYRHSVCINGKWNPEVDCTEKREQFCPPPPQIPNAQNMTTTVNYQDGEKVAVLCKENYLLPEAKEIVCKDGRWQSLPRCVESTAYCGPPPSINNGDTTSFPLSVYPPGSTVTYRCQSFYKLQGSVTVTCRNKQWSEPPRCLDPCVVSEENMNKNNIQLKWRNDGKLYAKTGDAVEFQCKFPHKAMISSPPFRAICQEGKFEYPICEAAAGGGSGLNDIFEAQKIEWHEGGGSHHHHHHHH

B1: MAB<CFHR1>M-4.2.53 (antibody, V domains shown)
VH: QVQLKESGPGLVAPSQSLSITCTVSGFSLTSYGVHWVRQPPGKGLEWLGVIWAGGNTDYISALMSRLSISKDNSKSQVFLKINRLQTDDTAVYYCARDHYDGYYMEYWGQGTSVTVSP
VL: DIQMTQSPSSLSASLGGKVTITCKASQDINKYLAWYQHKPGKGPRLLIHYTFTLQPGIPSRFSGGGSGRDYSFNINNLEPEDIATYYCLQYDNLYTFGGGTKLEIKR
notes: In-house mouse monoclonal IgG; also called MAB<CFHR1>M-4.2.53-Ru
B2: MAB<CFHR1>M-4.1.3 (antibody, V domains shown)
VH: DVQLQESGPGLVKPSQSLSLTCTVTGYSITSEYAWNWIRQFPGNKLEWMAYINSSGKSSYNPSLKSRISVTRDTSKNQFFLQLNSVTTEDTATYYCAREGYGNYPAWFAYWGQGTLVTVSA
VL: DIQMTQTTSSLSASLGDRVTISCSASQDINNYLNWYQQKPDGTVKLLIYYTSNLHSGVPSRFSGSGSGTDYSLTISNLEPEDIATYFCQQYSKLPRTFGGGTKLEIKR
notes: In-house mouse monoclonal IgG; also called MAB<CFHR1>M-4.1.3-Ru
B3: MAB<CFHR1>M-5.3.23 (antibody, V domains shown)
VH: EVKLEESGGGLVQPGGSMKLSCDGSGFTFSDAWMGWVRQSPEKGLEWVSEIRNRANNHETHYAESVKGRFTISRDDSKSRVYLQMNSLRAEDTGIYYCNGRYYDSYWFLDVWGAGTTVTVSS
VL: NIVMTQTPKFLPVSVGDRVTMTCKASQSVGYNVAWFQQKPGQSPKLLIYYASNRYTGVPDRFTGSGGGTDFTFTISSVQVEDLAVYFCQQHYISPTFGSGTKLEIKR
notes: In-house mouse monoclonal IgG; also called MAB<CFHR1>M-5.3.23-Ru
B4: MAB<CFHR1>M-4.2.74 (antibody, V domains shown)
VH: DVRLVESGGGLVQPGGSRKLSCAASGFTFSSFGMHWVRQAPEKGLEWVAYISSGSSTIYYADTVKGRFTISRDNPKNTLFLQMTSLRSEDTAMYYCARWGNSYAMDYWGQGTSVTVSS
VL: DIVMTQSPSSLTVTAGEKVTMSCKSSQSLLNRGNQKNYLTWYQQKPGQPPKLLIYWASTRESGVPDRFTGSGSGTDFTLTISSVLAEDLAVYYCQIAYSSPFTFGSGTKLEIKR
notes: In-house mouse monoclonal IgG; also called MAB<CFHR1>M-4.2.74-Ru
B5: MAB<CFHR1>M-5.1.5 (antibody, V domains shown)
VH: EVQLVESGGDLVKPGGSLKLSCAASGFTFSSYDMSWVRQTPDKRLEWVATISSGGSNTYYPDSVKGRFTISRDNAKNTLYLQMSSLKSEDTAMYYCARQGYYYGSSYYAMDYWGQGTSVTVSS
VL: QIVLTQSPAIMSASPGEKVTMTCRASSSVSSSYLHWYQQKPGSSPKLWIYITSSLASGVPARFSGSGSGTSYSLTISSVEAEDGATYYCQQYHSSPYTFGSGTKLEIK
modifications: In the ECLIA sandwich assays the IgG was ruthenylated (Ru-(bpy)2-bpyCO-OSu). The BiaCore results used purified antibody with no label mentioned.
notes: It was used ruthenylated (-Ru) in the sandwich ECLIA; also called clone 5.1.5; MAK<CFHR1>M-5.1.5; copies: 2 + 2

Key:
[1] = biological target: T1, recombinant CFHR1-1-5 (tag-less, …); experiment: indirect ELISA, hybridoma supernatant on CFHR1 captured by biotinylated L20/3 Fab on streptavidin plates
Procedure: (§1) MAb production in hybridoma culture supernatants was assayed by indirect enzyme-linked immunosorbent assay (ELISA). Streptavidin coated microtiter plates (Microcoat, Bernried, Germany) were incubated with biotinylated Fab fragment of the MAB<CFH/CFHR1>M-L20/3 monoclonal antibody diluted 1:2000 in incubation buffer (phosphate buffered saline pH 7.3, 0.5% Byco C) for 1 h at room temperature. After washing with washing buffer (0.9% NaCl solution, 0.05% Tween 20) the microtiter plates were incubated for 1 h at room temperature with 100 ng/ml purified recombinant CFHR1 and CFH protein diluted in incubation buffer. The microtiter plates were washed again and hybridoma supernatants were added to the coated well and incubated for 1 h at room temperature. After washing, the bound monoclonal antibodies (MAbs) were detected by a 1 h incubation with goat anti-mouse IgG peroxidase conjugate (Calbiochem, Germany) diluted 1:5000 in incubation buffer followed by substrate reaction with ABTS solution (Roche, Germany) after further washing step. The color change was measured in an ELISA reader at 405/490 nm after 20-30 min. Some CFHR1-specific clones without any crossreactivity against CFH were selected.

CFHR2-GS-Avi-GS-His8 [2] = biological target: T2, CFHR2-GS-Avi-GS-His8; experiment: sandwich ECLIA, L20/3 Fab-Bi capture + 4.2.53-Ru detection (signal needs both antibodies); sample 100 µg/ml recombinant CFHR2
CFHR2-GS-Avi-GS-His8 [3] = biological target: T2, CFHR2-GS-Avi-GS-His8; experiment: sandwich ECLIA, L20/3 Fab-Bi capture + 4.2.53-Ru detection (signal needs both antibodies); sample 50 µg/ml recombinant CFHR2
[4] = biological target: T6, native human complement factor H (CFH) (human, UniProt P08603 19-1231); experiment: indirect ELISA, hybridoma supernatant on CFH captured by biotinylated L20/3 Fab on streptavidin plates
T6 construct: Native CFH; also called native CFH; serum-purified CFH
Procedure: as §1

CFHR2-GS-Avi-GS-His8 [5] = biological target: T2, CFHR2-GS-Avi-GS-His8; experiment: SPR (BiaCore), antibody captured by rabbit anti-mouse IgG on CM5 chip, antigen in solution
Procedure: (§2) The antibodies MAB<CFH/CFHR1>M-L20/3, MAB<CFHR1>M-442127, MAB<CFHR1>M-4.1.3 and MAB<CFHR1>M-5.1.5 were analyzed on the BiaCore. The chip CM5 coated with a rabbit anti-Mouse IgG was used to bind the purified monoclonal mouse antibodies. In the next step native CFH or the recombinant CFHR1, CFHR2, CFHR3, CFHR4B or CFHR5 proteins according to SEQ ID No.: 9 to 13 were added to determine the binding affinities of the different antibodies.

[6] = biological target: T1, recombinant CFHR1-1-5 (tag-less, …); experiment: as above
Procedure: as §2

[7] = biological target: T6, native human complement factor H (CFH); experiment: SPR (BiaCore), antibody captured by rabbit anti-mouse IgG on CM5 chip; n.d. = not detectable
Procedure: as §2

CFHR3-GS-Avi-GS-His8 = biological target: T3, CFHR3-GS-Avi-GS-His8; experiment: as above
Procedure: as §2

CFHL1-GS-Avi-GS-His8 = biological target: T7, CFHL1-GS-Avi-GS-His8 (human, UniProt P08603 19-445); experiment: as above
T7 construct: also called complement factor H isoform 2
Procedure: as §2

[8] = biological target: T4, CFHR4-GS-Avi-GS-His8 (CFHR4 Variant B); experiment: as above
Procedure: as §2

CFHR5-GS-Avi-GS-His8 = biological target: T5, CFHR5-GS-Avi-GS-His8; experiment: as above
Procedure: as §2

CFHR2-GS-Avi-GS-His8 [9] = biological target: T2, CFHR2-GS-Avi-GS-His8; experiment: sandwich ECLIA, L20/3 Fab-Bi capture + 5.3.23-Ru detection (signal needs both antibodies); sample 50 µg/ml recombinant CFHR2
CFHR2-GS-Avi-GS-His8 [10] = biological target: T2, CFHR2-GS-Avi-GS-His8; experiment: sandwich ECLIA, L20/3 Fab-Bi capture + 5.3.23-Ru detection (signal needs both antibodies); sample 100 µg/ml recombinant CFHR2
CFHR2-GS-Avi-GS-His8 [11] = biological target: T2, CFHR2-GS-Avi-GS-His8; experiment: sandwich ECLIA, L20/3 Fab-Bi capture + 4.2.74-Ru detection (signal needs both antibodies); sample 100 µg/ml recombinant CFHR2
CFHR2-GS-Avi-GS-His8 [12] = biological target: T2, CFHR2-GS-Avi-GS-His8; experiment: sandwich ECLIA, L20/3 Fab-Bi capture + 4.2.74-Ru detection (signal needs both antibodies); sample 50 µg/ml recombinant CFHR2

Row | Binder | binding result [1] | binding result [4] | Kd (CFHR2-GS-Avi-GS-His8 [5]) | Kd [6] | binding result [7] | binding result (CFHR3-GS-Avi-GS-His8) | binding result (CFHL1-GS-Avi-GS-His8) | binding result [8] | binding result (CFHR5-GS-Avi-GS-His8) | also measured
1 | B1 | binds | no binding (tested: 100 ng/ml CFH) |  |  |  |  |  |  |  | Measured CFHR1 (CFHR2-GS-Avi-GS-His8 [2]): 0.09 µg/mL; Measured CFHR1 (CFHR2-GS-Avi-GS-His8 [3]): 0 µg/mL
2 | B2 |  |  | 19 nM | 0.8 nM | no binding | no binding | no binding | no binding | no binding | 
3 | B3 | binds | no binding (tested: 100 ng/ml CFH) |  |  |  |  |  |  |  | Measured CFHR1 (CFHR2-GS-Avi-GS-His8 [9]): 0 µg/mL; Measured CFHR1 (CFHR2-GS-Avi-GS-His8 [10]): 0 µg/mL
4 | B4 | binds | no binding (tested: 100 ng/ml CFH) |  |  |  |  |  |  |  | Measured CFHR1 (CFHR2-GS-Avi-GS-His8 [11]): 0 µg/mL; Measured CFHR1 (CFHR2-GS-Avi-GS-His8 [12]): 0 µg/mL
5 | B5 |  |  | 0.3 nM | 0.01 nM | no binding | no binding | no binding | no binding | no binding | 
